A short description of the data set: protein stability index of a GFP-peptide fusion (GPS, HEK-293T) (PSI 1-6); higher = more stable. The settings on record: c terminus: a fixed tail appended.

± gives the standard deviation.
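Further: 24-mer peptide tiles fused after GFP, lentivirally expressed, FACS-sorted into six equal bins by GFP/DsRed ratio, decoded by Illumina sequencing, PSI is the read-weighted mean bin number.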

Consider DRKGYMFDYEYDWIGKQLPTPVGA [CSNK1G3], for which the protein stability index reads like this: (treatment: DMSO) 2.55 ± 0.23; (treatment: MLN4924 1 uM, 8 h) 2.62 ± 0.25.

As to VNSVCWASLNHLDSHILLCLMGLA [DCAF4], the protein stability index came out at 2.51 ± 0.63 (treatment: DMSO) and 2.69 ± 0.36 (treatment: MLN4924 1 uM, 8 h).

In turn, DTKMSFQWRIRNLPYPKDVYSVSV [DPCD] gave a protein stability index (treatment: DMSO) of 2.79 ± 0.52 and a protein stability index (treatment: MLN4924 1 uM, 8 h) of 2.71 ± 0.65.

On to VASCMHRQETVDCLKKFNARRKLK [CAMK2A], for which the protein stability index runs as follows: (treatment: DMSO) 4.05 ± 0.69; (treatment: MLN4924 1 uM, 8 h) 4.03 ± 0.26.

As for SDRFGRKKVYLTGFALDILFAIAN [SLC22A15], the protein stability index is, setting by setting: (treatment: DMSO) 2.51 ± 0.64; (treatment: MLN4924 1 uM, 8 h) 2.17 ± 0.41.

Consider IQDLCEMLGKYGSSLEFTELLTLV [CASP6], for which the protein stability index (treatment: DMSO) was determined as 2.34 ± 0.34 and the protein stability index (treatment: MLN4924 1 uM, 8 h) is 2.15 ± 0.26.

Consider GLSDPGKIKRLRSQVQVSLEDYIN [HNF4A], for which the protein stability index is, setting by setting: (treatment: DMSO) 2.78 ± 0.34; (treatment: MLN4924 1 uM, 8 h) 2.93 ± 0.18.

On to GRLGRRDEDAGLPRPVQLDETHPY [NEK8], for which the protein stability index (treatment: DMSO) amounted to 4.46 ± 0.066 and the protein stability index (treatment: MLN4924 1 uM, 8 h) is 4.7 ± 0.1.

Take RPTYFEMKNEKLLSKASEPKYQLF [RNF180]: the protein stability index was 2.54 ± 0.28 (treatment: DMSO) and 2.78 ± 0.19 (treatment: MLN4924 1 uM, 8 h).

On to GTSTLLVWVGVIRYLTFFHNYNIL [MCOLN1], for which the protein stability index was found to be 3.35 ± 0.16 (treatment: DMSO) and 2.99 ± 0.2 (treatment: MLN4924 1 uM, 8 h).

IQKNYECANFGDQGITMGCWDMYR [LOXL2]: the protein stability index was found to be 2.06 ± 0.45 (treatment: DMSO) and 2.13 ± 0.25 (treatment: MLN4924 1 uM, 8 h).

For the sequence RSPIIDVKNDRDRVGHKSIPMRNL [SERPINB5], the protein stability index (treatment: DMSO) is 3.83 ± 0.13 and the protein stability index (treatment: MLN4924 1 uM, 8 h) came to 4 ± 0.36.

Consider CQDCGRAFNQNSSLGRHKRTHTGE [ZNF8], for which the protein stability index runs as follows: (treatment: DMSO) 3.73 ± 0.44; (treatment: MLN4924 1 uM, 8 h) 3.42 ± 0.17.

Sequence RWDPVRRRFIQSCPIIRIPNRFLR [KLHDC10] returned a protein stability index (treatment: DMSO) of 2.48 ± 0.42 and a protein stability index (treatment: MLN4924 1 uM, 8 h) of 2.49 ± 0.2.

Regarding ISDNPERYSTNLSNHVDDFTTFRG [EDNRA], the protein stability index came out at 3.87 ± 0.34 (treatment: DMSO) and 3.95 ± 0.42 (treatment: MLN4924 1 uM, 8 h).

Turning to RLAQVKRKILVLDLDETLIHSHHD [CTDNEP1], the protein stability index by setting is: (treatment: DMSO) 2.41 ± 0.73; (treatment: MLN4924 1 uM, 8 h) 2.58 ± 0.36.

RQNLSKSWLDVQVSNTYVKQKTSA [TPD52L3] displayed a protein stability index (treatment: DMSO) of 3.83 ± 0.28 and a protein stability index (treatment: MLN4924 1 uM, 8 h) of 3.8 ± 0.25.

In turn, KMLGNPSRLPAKCPGKGAWSIPWK [FKBP8] gave a protein stability index (treatment: DMSO) of 2.08 ± 0.26 and a protein stability index (treatment: MLN4924 1 uM, 8 h) of 2.25 ± 0.23.

On to PGSIIGPQQHFLEEKQASLWVQGD [CDC14A], for which the protein stability index worked out at 4.04 ± 0.37 (treatment: DMSO) and 4.14 ± 0.4 (treatment: MLN4924 1 uM, 8 h).

With APDRATAVATASRLGPYVLLEPEE [TRIB3], the protein stability index (treatment: DMSO) came to 5.04 ± 0.31 and the protein stability index (treatment: MLN4924 1 uM, 8 h) is 5.04 ± 0.24.

For the sequence SGEELHELFHTIDTHNTNNLDTEE [NECAB1], the protein stability index (treatment: DMSO) is 5.12 ± 0.6 and the protein stability index (treatment: MLN4924 1 uM, 8 h) is 5.08 ± 0.68.

The sequence ASLTIPLVPETEDDRKLAALLKFH [YJU2B] returned a protein stability index (treatment: DMSO) of 3.05 ± 0.24 and a protein stability index (treatment: MLN4924 1 uM, 8 h) of 3.41 ± 0.24.

Regarding LMKHKSRKRRLFCTMEPEPVQPGM [TRIM35], the protein stability index reads like this: (treatment: DMSO) 3.51 ± 0.49; (treatment: MLN4924 1 uM, 8 h) 3.43 ± 0.17.

Take REQADSCREQLDIMNDLSNRVWSI [TRIM14]: the protein stability index was 2.23 ± 0.11 (treatment: DMSO) and 2.28 ± 0.46 (treatment: MLN4924 1 uM, 8 h).

Regarding EESPNGSEGACEKEKQSRDFQGRI [RHOBTB1], the protein stability index (treatment: DMSO) came out at 5.35 ± 0.21 and the protein stability index (treatment: MLN4924 1 uM, 8 h) amounted to 5.32 ± 0.46.

Sequence DNANILLQIDNARLAADDFRTKFE [KRT17] yielded a protein stability index (treatment: DMSO) of 3.27 ± 0.26 and a protein stability index (treatment: MLN4924 1 uM, 8 h) of 3.71 ± 0.28.

YVYKPVMNQTCCPQYTIRCRPLQF [ATE1]: the protein stability index amounted to 2.65 ± 0.64 (treatment: DMSO) and 2.3 ± 0.33 (treatment: MLN4924 1 uM, 8 h).

Consider GVVQALIVGYAFHFPHLLSPQIQR [TMEM175], for which the protein stability index was 3.53 ± 0.28 (treatment: DMSO) and 3.25 ± 0.25 (treatment: MLN4924 1 uM, 8 h).

Take ATLTTTSATSKLIHPDEDISLEER [ZNF207]: the protein stability index was found to be 5.23 ± 0.064 (treatment: DMSO) and 5.35 ± 0.27 (treatment: MLN4924 1 uM, 8 h).
